US20230218738A1 (Pfizer, published 2023)

Columns and labels:
Experiment in all cases: BLI (Octet), F on anti-HIS tip, 20 nM mAb
[1] = target: T1, RSV F protein mutant pXCS827 (RSV A2, UniProt P03420 26-109)
T1 chain 1: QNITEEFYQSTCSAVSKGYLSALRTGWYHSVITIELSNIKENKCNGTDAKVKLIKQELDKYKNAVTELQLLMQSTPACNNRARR
T1 chain 2: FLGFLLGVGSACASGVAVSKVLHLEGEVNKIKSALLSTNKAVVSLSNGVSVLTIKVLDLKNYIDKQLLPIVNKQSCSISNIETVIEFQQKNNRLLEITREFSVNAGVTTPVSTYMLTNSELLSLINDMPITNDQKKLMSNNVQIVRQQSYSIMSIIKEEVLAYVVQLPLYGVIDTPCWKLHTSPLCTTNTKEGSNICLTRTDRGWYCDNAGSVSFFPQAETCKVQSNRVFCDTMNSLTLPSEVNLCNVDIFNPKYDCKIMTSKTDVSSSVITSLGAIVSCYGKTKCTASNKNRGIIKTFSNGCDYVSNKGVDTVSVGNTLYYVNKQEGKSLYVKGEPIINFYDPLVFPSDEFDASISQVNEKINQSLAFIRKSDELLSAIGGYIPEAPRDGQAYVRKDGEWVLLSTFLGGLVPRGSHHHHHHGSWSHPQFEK

[2] = target: RSV F protein mutant pXCS850 (RSV A2, UniProt P03420 26-109)
[3] = target: T2, RSV F protein mutant pXCS734 (RSV A2, UniProt P03420 26-109)
T2 chain 1: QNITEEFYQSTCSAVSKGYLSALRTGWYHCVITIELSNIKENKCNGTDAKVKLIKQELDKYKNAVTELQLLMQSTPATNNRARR
T2 chain 2: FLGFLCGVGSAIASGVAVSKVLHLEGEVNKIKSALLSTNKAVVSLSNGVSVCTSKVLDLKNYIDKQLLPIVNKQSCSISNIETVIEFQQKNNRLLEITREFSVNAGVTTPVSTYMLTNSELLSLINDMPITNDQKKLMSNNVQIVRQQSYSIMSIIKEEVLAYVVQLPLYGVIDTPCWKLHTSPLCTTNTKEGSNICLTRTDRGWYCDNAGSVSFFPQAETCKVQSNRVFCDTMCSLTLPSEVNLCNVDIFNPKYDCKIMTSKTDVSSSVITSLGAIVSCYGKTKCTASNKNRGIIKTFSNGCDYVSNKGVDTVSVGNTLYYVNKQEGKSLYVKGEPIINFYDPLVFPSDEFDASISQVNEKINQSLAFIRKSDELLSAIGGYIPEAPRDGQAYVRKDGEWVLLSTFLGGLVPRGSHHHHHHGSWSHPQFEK

[4] = target: T3, RSV F protein mutant pXCS890 (RSV A2, UniProt P03420 26-109)
T3 chain 1: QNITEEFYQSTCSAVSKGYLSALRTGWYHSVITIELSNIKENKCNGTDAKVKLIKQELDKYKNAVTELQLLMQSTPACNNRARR
T3 chain 2: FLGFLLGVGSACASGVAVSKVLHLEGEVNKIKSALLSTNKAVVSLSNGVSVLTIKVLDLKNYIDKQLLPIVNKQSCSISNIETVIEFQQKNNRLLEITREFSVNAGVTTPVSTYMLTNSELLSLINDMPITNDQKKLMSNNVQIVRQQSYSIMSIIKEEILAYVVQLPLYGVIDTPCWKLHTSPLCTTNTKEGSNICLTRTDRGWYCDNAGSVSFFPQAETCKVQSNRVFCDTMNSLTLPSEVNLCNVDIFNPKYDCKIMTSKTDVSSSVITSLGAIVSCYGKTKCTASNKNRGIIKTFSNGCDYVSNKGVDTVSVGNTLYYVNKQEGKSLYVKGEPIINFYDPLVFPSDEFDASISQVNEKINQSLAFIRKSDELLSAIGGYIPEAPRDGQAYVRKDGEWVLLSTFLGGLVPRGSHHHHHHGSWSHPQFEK

[5] = target: RSV F protein mutant pXCS735 (RSV A2, UniProt P03420 26-109)
[6] = target: RSV F protein mutant pXCS780 (RSV A2, UniProt P03420 26-109)
[7] = target: RSV F protein mutant pXCS883 (RSV A2, UniProt P03420 26-109)
[8] = target: RSV F protein mutant pXCS758 (RSV A2, UniProt P03420 26-109)
[9] = target: RSV F protein mutant pXCS857 (RSV A2, UniProt P03420 26-109)
[10] = target: T4, RSV F protein mutant pXCS849 (RSV A2, UniProt P03420 26-109)
T4 chain 1: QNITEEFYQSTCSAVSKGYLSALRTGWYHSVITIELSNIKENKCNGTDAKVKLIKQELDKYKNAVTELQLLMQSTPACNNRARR
T4 chain 2: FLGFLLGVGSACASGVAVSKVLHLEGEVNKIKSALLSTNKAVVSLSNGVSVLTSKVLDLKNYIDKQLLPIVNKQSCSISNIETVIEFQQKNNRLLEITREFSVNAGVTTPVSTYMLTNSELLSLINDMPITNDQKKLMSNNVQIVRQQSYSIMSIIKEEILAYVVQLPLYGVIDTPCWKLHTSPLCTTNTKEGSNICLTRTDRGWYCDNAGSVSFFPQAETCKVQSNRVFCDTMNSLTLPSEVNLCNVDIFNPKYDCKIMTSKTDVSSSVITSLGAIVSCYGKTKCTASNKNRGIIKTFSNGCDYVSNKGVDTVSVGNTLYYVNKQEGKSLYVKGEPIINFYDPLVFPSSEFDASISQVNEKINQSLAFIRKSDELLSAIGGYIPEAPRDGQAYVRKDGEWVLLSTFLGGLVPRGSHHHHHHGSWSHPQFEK

[11] = target: RSV F protein mutant pXCS806 (RSV A2, UniProt P03420 26-109)
[12] = target: RSV F protein mutant pXCS875 (RSV A2, UniProt P03420 26-109)

B1: MPE8 (antibody, V domains shown)
VH: EVQLVESGGGLVKPGGSLRLSCAASGFTFSSYSMNWVRQAPGKGLEWVSSISASSSYSDYADSAKGRFTISRDNAKTSLFLQMNSLRAEDTAIYFCARARATGYSSITPYFDIWGQGTLVTVSS
VL: QSVVTQTPSVSGAPGQRVTISCTGSSSNIGAGYDVHWYQQLPGTAPKLLIYDNNNRPSGVPDRFSASKSGTSASLAITGLQAEDEADYYCQSYDRNLSGVFGTGTKVTVL
notes: also called MPEG
- Response (nm shift) [1]: 0.88 nm
- Response (nm shift) [2]: 1.04 nm
- Response (nm shift) [3]: 0.818 nm
- Response (nm shift) [4]: 0.999 nm
- Response (nm shift) [5]: 0.375 nm
- Response (nm shift) [6]: 0.608 nm
- Response (nm shift) [7]: 0.704 nm
- Response (nm shift) [8]: 0.816 nm
- Response (nm shift) [9]: 1.09 nm
- Response (nm shift) [10]: 0.908 nm

B2: AM22 (antibody, V domains shown)
VH: QVQLVQSGAEVKKPGATVKVSCKISGHTLIKLSIHWVRQAPGKGLEWMGGYEGEVDEIFYAQKFQHRLTVIADTATDTVYMELGRLTSDDTAVYFCGTLGVTVTEAGLGIDDYWGQGTLVTVSS
VL: EIVLTQSPGTLSLSPGERATLSCRASQIVSRNHLAWYQQKPGQAPRLLIFGASSRATGIPVRFSGSGSGTDFTLTINGLAPEDFAVYYCLSSDSSIFTFGPGTKVDFK
- Response (nm shift) [1]: 0.45 nm
- Response (nm shift) [2]: 0.517 nm
- Response (nm shift) [11]: 0.152 nm
- Response (nm shift) [3]: 0.284 nm
- Response (nm shift) [4]: 0.538 nm
- Response (nm shift) [6]: 0.29 nm
- Response (nm shift) [7]: 0.233 nm
- Response (nm shift) [8]: 0.273 nm
- Response (nm shift) [12]: 0.205 nm
- Response (nm shift) [9]: 0.563 nm
- Response (nm shift) [10]: 0.43 nm
